Values quoted from earlier work in publication PMC3906610.

Biological target: PagP (Escherichia coli) (UniProt P37001)
Chain of UniProt P37001 (P37001 26-186): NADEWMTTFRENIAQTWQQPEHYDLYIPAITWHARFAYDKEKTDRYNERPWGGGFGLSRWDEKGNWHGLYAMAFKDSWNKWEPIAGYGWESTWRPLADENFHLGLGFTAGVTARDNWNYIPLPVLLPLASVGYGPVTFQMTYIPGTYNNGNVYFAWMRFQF

Kd: 11.8 nM
Substance: Skp (from UniProt P0AEU7)
